Source: the RNAGym collection of RNA variant scans (doi:10.7554/elife.80360)

B1: CPEB3 Ribozyme (parent)
chain: GGGGGCCACAGCAGAAGCGUUCACGUCGCGGCCCCUGUCAGAUUCUGGUGAAUCUGCGAAUUCUGCUGU

Variants of: B1
Experiment: self-cleavage, relative activity (ratio to wild type); higher = more cleavage; co-transcriptional

Variant	self-cleavage
GGGGGCCACAGCAGAAGCGUUCACGUCGCGGCCGCUGUCAGAUUCUGGUAAAUCUGCGAAUUCUGCUGU	0.707
GGGGGCCACAGCAGAAGCGUUCACGUCGCGGCCGCUGUCAGAUUCUGGUGACUCUGCGAAUUCUGCUGU	0.618
GGGGGCCACAGCAGAAGCGUUCACGUCGCGGCCGCUGUCAGAUUCUGGUGAGUCUGCGAAUUCUGCUGU	0.771
GGGGGCCACAGCAGAAGCGUUCACGUCGCGGCCACUGUCAGAUUCUGGUGAAUCUGCGAAUUCUGCUGC	0.992
GGGGGCCACAGCAGAAGCGUUCACGUCGCGGCCGCUGUCAGAUUCUGGUGAAUCUGCGCAUUCUGCUGU	0.291
GGGGGCCACAGCAGAAGCGUUCACGUCGCGGCCACUGUCAGAUUCUGGUGAAUCUGCGAAUUCUCCUGU	0.485
GGGGGCCACAGCAGAAGCGUUCACGUCGCGGCCACUGUCAGAUUCUGGUGAAUCUGCGAAGUCUGCUGU	0.426
GGGGGCCACAGCAGAAGCGUUCACGUCGCGGCCGCUGUCAGAUUCUGGUGAAUCUCCGAAUUCUGCUGU	0.261
GGGGGCCACAGCAGAAGCGUUCACGUCGCGGCCACUGUCAGAUUCUGGUGAAUCAGCGAAUUCUGCUGU	0.529
GGGGGCCACAGCAGAAGCGUUCACGUCGCGGCCGCUGUCAGAUUCUGGUGAAUCUGCGAAUUCUGCUGG	0.926
GGGGGCCACAGCAGAAGCGUUCACGUCGCGGCCUCUGUCAUAUUCUGGUGAAUCUGCGAAUUCUGCUGU	0.901
GGGGGCCACAGCAGAAGCGUUCACGUCGCGGCCUCUGUCACAUUCUGGUGAAUCUGCGAAUUCUGCUGU	0.729
GGGGGCCACAGCAGAAGCGUUCACGUCGCGGCCUCUGUCAGAUUCUGGUUAAUCUGCGAAUUCUGCUGU	0.987
GGGGGCCACAGCAGAAGCGUUCACGUCGCGGCCUCUAUCAGAUUCUGGUGAAUCUGCGAAUUCUGCUGU	0.224
GGGGGCCACAGCAGAAGCGUUCACGUCGCGGCCUCAGUCAGAUUCUGGUGAAUCUGCGAAUUCUGCUGU	0.228
GGGGGCCACAGCAGAAGCGUUCACGUCGCGGCCGCUGUUAGAUUCUGGUGAAUCUGCGAAUUCUGCUGU	0.439
GGGGGCCACAGCAGAAGCGUUCACGUCGCGGCCGCUGUGAGAUUCUGGUGAAUCUGCGAAUUCUGCUGU	0.455
GGGGGCCACAGCAGAAGCGUUCACGUCGCGGCCACCGUCAGAUUCUGGUGAAUCUGCGAAUUCUGCUGU	0.568
GGGGGCCACAGCAGAAGCGUUCACGUCGCGGCCACGGUCAGAUUCUGGUGAAUCUGCGAAUUCUGCUGU	0.316
GGGGGCCACAGCAGAAGCGUUCACGUCGCGGCCUCUGUCAGAUUAUGGUGAAUCUGCGAAUUCUGCUGU	0.946

Variant	self-cleavage
GGGGGCCACAGCAGAAGCGUUCACGUCGCGGCCGCUGUCAGUUUCUGGUGAAUCUGCGAAUUCUGCUGU	0.544
GGGGGCCACAGCAGAAGCGUUCACGUCGCGGCCGCUGUCAGGUUCUGGUGAAUCUGCGAAUUCUGCUGU	0.637
GGGGGCCACAGCAGAAGCGUUCACGUCGCGGCCUCUGCCAGAUUCUGGUGAAUCUGCGAAUUCUGCUGU	0.962
GGGGGCCACAGCAGAAGCGUUCACGUCGCGGCCUCUGGCAGAUUCUGGUGAAUCUGCGAAUUCUGCUGU	0.227
GGGGGCCACAGCAGAAGCGUUCACGUCGCGGCCUCUGACAGAUUCUGGUGAAUCUGCGAAUUCUGCUGU	0.935
GGGGGCCACAGCAGAAGCGUUCACGUCGCGGCCUCUGUCAGAUUCUGGUGAAUCUGCGAAUUAUGCUGU	0.869
GGGGGCCACAGCAGAAGCGUUCACGUCGCGGCCUCUGUCAGAUUCUGGUGAAUCUGCGAAUUUUGCUGU	1
GGGGGCCACAGCAGAAGCGUUCACGUCGCGGCCACUGCCAGAUUCUGGUGAAUCUGCGAAUUCUGCUGU	0.492
GGGGGCCACAGCAGAAGCGUUCACGUCGCGGCCACUGACAGAUUCUGGUGAAUCUGCGAAUUCUGCUGU	0.846
GGGGGCCACAGCAGAAGCGUUCACGUCGCGGCCACUGGCAGAUUCUGGUGAAUCUGCGAAUUCUGCUGU	0.232
GGGGGCCACAGCAGAAGCGUUCACGUCGCGGCCUCUGUCAGAUUCUGGUGAAUCUGGGAAUUCUGCUGU	0.261
GGGGGCCACAGCAGAAGCGUUCACGUCGCGGCCGCUGUCAGAUUCUGGUGAAUCAGCGAAUUCUGCUGU	0.386
GGGGGCCACAGCAGAAGCGUUCACGUCGCGGCCGCUGUCAGAUUCUGGUGAAUCGGCGAAUUCUGCUGU	0.475
GGGGGCCACAGCAGAAGCGUUCACGUCGCGGCCGCUGUCAGAUUCUGGUGAAUCCGCGAAUUCUGCUGU	0.327
GGGGGCCACAGCAGAAGCGUUCACGUCGCGGCCGCUGUCAGAAUCUGGUGAAUCUGCGAAUUCUGCUGU	0.551
GGGGGCCACAGCAGAAGCGUUCACGUCGCGGCCGCUGUCAGAUUCUGGUGAAUCUGCGAAUUCUGAUGU	0.411
GGGGGCCACAGCAGAAGCGUUCACGUCGCGGCCGCUGUCAGAUUCUGGUGAAUCUGCGAAUUCUGUUGU	0.643
GGGGGCCACAGCAGAAGCGUUCACGUCGCGGCCGCUGUCAGAUACUGGUGAAUCUGCGAAUUCUGCUGU	0.579
GGGGGCCACAGCAGAAGCGUUCACGUCGCGGCCACUGUCAGACUCUGGUGAAUCUGCGAAUUCUGCUGU	0.496
